Patent US20170363643A1

Legend:
[1] = target: His-tagged recombinant human SMN protein (ProteinTech, catalog # ag14333) (human) (UniProt Q16637); test: Erenna sandwich assay, capture MABE230; SMN 2 pg/mL, MPs 10 µg/well, Det Ab 100 ng/mL, Cap Ab/MP 25 µg/mg
[2] = target: His-tagged recombinant human SMN protein (ProteinTech, catalog # ag14333) (human) (UniProt Q16637); test: Erenna sandwich assay, capture MABE230; SMN 2 pg/mL, MPs 5 µg/well, Det Ab 500 ng/mL, Cap Ab/MP 12.5 µg/mg
[3] = target: His-tagged recombinant human SMN protein (ProteinTech, catalog # ag14333) (human) (UniProt Q16637); test: Erenna sandwich assay, capture MABE230; SMN 2 pg/mL, MPs 5 µg/well, Det Ab 50 ng/mL, Cap Ab/MP 25 µg/mg
[4] = target: His-tagged recombinant human SMN protein (ProteinTech, catalog # ag14333) (human) (UniProt Q16637); test: Erenna sandwich assay, capture MABE230; human CSF sample 1 spiked with recombinant SMN 10.0 pg/mL (endogenous SMN also present)
[5] = target: His-tagged recombinant human SMN protein (ProteinTech, catalog # ag14333) (human) (UniProt Q16637); test: Erenna sandwich assay, capture MABE230 12.5 µg/mg MPs; Det Ab 500 ng/mL; SMN 0.93 pg/mL
[6] = target: His-tagged recombinant human SMN protein (ProteinTech, catalog # ag14333) (human) (UniProt Q16637); test: Erenna sandwich assay, capture MABE230 12.5 µg/mg MPs; Det Ab 1000 ng/mL; SMN 0.06 pg/mL
[7] = target: His-tagged recombinant human SMN protein (ProteinTech, catalog # ag14333) (human) (UniProt Q16637); test: Erenna sandwich assay, capture MABE230 12.5 µg/mg MPs; Det Ab 1000 ng/mL; SMN 0.93 pg/mL
[8] = target: His-tagged recombinant human SMN protein (ProteinTech, catalog # ag14333) (human) (UniProt Q16637); test: Erenna sandwich assay, capture MABE230 12.5 µg/mg MPs; Det Ab 1000 ng/mL; SMN 66.67 pg/mL
[9] = target: endogenous SMN protein in human CSF (human) (UniProt Q16637); test: Erenna sandwich assay, capture MABE230; human CSF sample 5, unspiked (endogenous SMN only)
[10] = target: His-tagged recombinant human SMN protein (ProteinTech, catalog # ag14333) (human) (UniProt Q16637); test: Erenna sandwich assay, capture MABE230; SMN 2 pg/mL, MPs 10 µg/well, Det Ab 1000 ng/mL, Cap Ab/MP 25 µg/mg
[11] = target: His-tagged recombinant human SMN protein (ProteinTech, catalog # ag14333) (human) (UniProt Q16637); test: Erenna sandwich assay, capture MABE230 12.5 µg/mg MPs; Det Ab 500 ng/mL; SMN 0.12 pg/mL
[12] = target: His-tagged recombinant human SMN protein (ProteinTech, catalog # ag14333) (human) (UniProt Q16637); test: Erenna sandwich assay, capture MABE230; human CSF sample 4 spiked with recombinant SMN 10.0 pg/mL (endogenous SMN also present)
[13] = target: His-tagged recombinant human SMN protein (ProteinTech, catalog # ag14333) (human) (UniProt Q16637); test: Erenna sandwich assay, capture MABE230 12.5 µg/mg MPs; Det Ab 1000 ng/mL; SMN 7.41 pg/mL
[14] = target: His-tagged recombinant human SMN protein (ProteinTech, catalog # ag14333) (human) (UniProt Q16637); test: Erenna sandwich assay, capture MABE230; human CSF sample 2 spiked with recombinant SMN 5.0 pg/mL (endogenous SMN also present)
[15] = target: His-tagged recombinant human SMN protein (ProteinTech, catalog # ag14333) (human) (UniProt Q16637); test: Erenna sandwich assay, capture MABE230; human CSF sample 4 spiked with recombinant SMN 5.0 pg/mL (endogenous SMN also present)
[16] = target: His-tagged recombinant human SMN protein (ProteinTech, catalog # ag14333) (human) (UniProt Q16637); test: Erenna sandwich assay, capture MABE230; SMN 2 pg/mL, MPs 5 µg/well, Det Ab 1000 ng/mL, Cap Ab/MP 12.5 µg/mg
[17] = target: His-tagged recombinant human SMN protein (ProteinTech, catalog # ag14333) (human) (UniProt Q16637); test: Erenna sandwich assay, capture MABE230 12.5 µg/mg MPs; Det Ab 500 ng/mL; SMN 1.85 pg/mL
[18] = target: His-tagged recombinant human SMN protein (ProteinTech, catalog # ag14333) (human) (UniProt Q16637); test: Erenna sandwich assay, capture MABE230 12.5 µg/mg MPs; Det Ab 1000 ng/mL; SMN 3.70 pg/mL
[19] = target: endogenous SMN protein in human CSF (human) (UniProt Q16637); test: Erenna sandwich assay, capture MABE230; human CSF sample 2, unspiked (endogenous SMN only)
[20] = target: His-tagged recombinant human SMN protein (ProteinTech, catalog # ag14333) (human) (UniProt Q16637); test: Erenna sandwich assay, capture MABE230; SMN 2 pg/mL, MPs 5 µg/well, Det Ab 100 ng/mL, Cap Ab/MP 25 µg/mg
[21] = target: His-tagged recombinant human SMN protein (ProteinTech, catalog # ag14333) (human) (UniProt Q16637); test: Erenna sandwich assay, capture MABE230; human CSF sample 1 spiked with recombinant SMN 5.0 pg/mL (endogenous SMN also present)
[22] = target: His-tagged recombinant human SMN protein (ProteinTech, catalog # ag14333) (human) (UniProt Q16637); test: Erenna sandwich assay, capture MABE230; SMN 2 pg/mL, MPs 5 µg/well, Det Ab 100 ng/mL, Cap Ab/MP 12.5 µg/mg

detected events (DE) (detected events) [1]: 1130 | detected events (DE) (detected events) [2]: 1950 | detected events (DE) (detected events) [3]: 560 | detected events (DE) (detected events) [4]: 9730 | detected events (DE) (detected events) [5]: 967 | event photons (EP) (event photons) [5]: 135000 | detected events (DE) (detected events) [6]: 125 | event photons (EP) (event photons) [6]: 15900 | detected events (DE) (detected events) [7]: 1170 | event photons (EP) (event photons) [7]: 171000 | detected events (DE) (detected events) [8]: 11500 | event photons (EP) (event photons) [8]: 1.06e+07 | detected events (DE) (detected events) [9]: 479 | detected events (DE) (detected events) [10]: 2670 | detected events (DE) (detected events) [11]: 154 | event photons (EP) (event photons) [11]: 19500 | detected events (DE) (detected events) [12]: 8660 | detected events (DE) (detected events) [13]: 7200 | event photons (EP) (event photons) [13]: 1.32e+06 | detected events (DE) (detected events) [14]: 5310 | detected events (DE) (detected events) [15]: 5810 | detected events (DE) (detected events) [16]: 2590 | detected events (DE) (detected events) [17]: 1850 | event photons (EP) (event photons) [17]: 267000 | detected events (DE) (detected events) [18]: 4330 | event photons (EP) (event photons) [18]: 706000 | detected events (DE) (detected events) [19]: 240 | detected events (DE) (detected events) [20]: 817 | detected events (DE) (detected events) [21]: 5070 | detected events (DE) (detected events) [22]: 753
Substance: ProteinTech anti-SMN2 (catalog #60154-1-Ig) (antibody)
